This passage reports PRRSV RNA abundance (RT-qPCR, 24 h) in MARC-145 cells after PRRSV (0.1 MOI) was pre-incubated with soluble HSPA8-GST (0.5, 1, 2 μM); GST protein 2 μM as control, PRRSV infectivity (IFA) in MARC-145 cells whose surface HSPA8 (endogenous) was blocked with 16- and 32-fold diluted mouse HSPA8-GST pAbs and PRRSV titers (TCID50) in MARC-145 cells whose surface HSPA8 (endogenous) was blocked with 16-fold diluted mouse HSPA8-GST pAbs; decrease (log10TCID50/mL) results from publication PMC8826899.

Assay [1] concerns the target HSPA8-GST (recombinant full-length monkey HSPA8 with GST tag) (monkey).
Assay [2] shares this target. This is another data set of the same source.

Consider “PRRSV virions (PRRSV-2 strain BJ-4) (complex)”, for which, in assay [1], the PRRSV RNA abundance (RT-qPCR, 24 h) in MARC-145 cells after PRRSV (0.1 MOI) was pre-incubated with soluble HSPA8-GST (0.5, 1, 2 μM); GST protein 2 μM as control turned out to be 50 % reduction. Also, in assay [2], the PRRSV infectivity (IFA) in MARC-145 cells whose surface HSPA8 (endogenous) was blocked with 16- and 32-fold diluted mouse HSPA8-GST pAbs was 75 % decrease; the PRRSV titers (TCID50) in MARC-145 cells whose surface HSPA8 (endogenous) was blocked with 16-fold diluted mouse HSPA8-GST pAbs; decrease (log10TCID50/mL) was determined as 1.
